Measurements as given in patent US20240124575A1 (SIMCERE ZAIMING PHARMACEUTICAL, published 2024).

Columns and labels:
[1] = molecular target: T1, human CD33 on CHO-K1 cells (CHO-K1-human CD33) (human, UniProt P20138 18-364); test: FACS, CHO-K1-human CD33 cells
T1 construct: whole, on cells; stably transfected CHO-K1 clones; also called CHO-K1-hCD33-B8; CHO-K1-human CD33 B8
Procedure: The desired cells were expanded to a logarithmic growth phase in a T-75 cell culture flask. For adherent cells CHO-K1, the culture medium was removed by pipetting, and the cells were washed twice with a PBS buffer, digested with trypsin, and washed twice with a PBS buffer again after the digestion was stopped. For suspension cells U937, the medium supernatant was discarded by direct centrifugation, and the cell pellet was washed twice with PBS, and then incubated with a buffer containing human Fc Block (purchased from BD, Cat. No. 564220) for 15 min. After the cells obtained in the last step were subjected to cell counting, the cell pellet was resuspended to 2×10⁶ cells/mL with a blocking solution [PBS+2% (w/w) BSA] and added to a 96-well FACS reaction plate at 50 μL/well. The VHH-Fc antibody (a sample to be tested) was added at 50 μL/well, and the plate was incubated on ice for 2 h. […] After the plate was centrifuged and washed 5 times with a PBS buffer, the results were assayed and analyzed by FACS (FACS Canto™, purchased from BD Biosciences), so as to obtain the mean fluorescence intensity (MFI) of cells. Then, analysis was performed by software (GraphPad Prism8), data were fitted, and EC50 values were calculated.

[2] = molecular target: T2, human CD33-His (extracellular domain Asp 18-His 259) (human, UniProt P20138 18-259); test: ELISA on coated human CD33-his
T2 construct: range 18-259; bought protein; also called hCD33-his; human CD33 protein; not shown: His tag
T2 sequence (P20138 18-259 limits assumed): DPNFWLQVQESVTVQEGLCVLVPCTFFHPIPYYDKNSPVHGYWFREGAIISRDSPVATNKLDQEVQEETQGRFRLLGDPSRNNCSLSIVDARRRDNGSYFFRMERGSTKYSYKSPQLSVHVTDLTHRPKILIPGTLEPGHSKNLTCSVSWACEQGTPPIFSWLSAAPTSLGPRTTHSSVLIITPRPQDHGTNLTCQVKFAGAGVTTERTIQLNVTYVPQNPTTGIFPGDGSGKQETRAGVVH
Procedure: In order to assay the binding activity of VHH-Fc to human CD33 protein, a human CD33-his protein (purchased from ACROBiosystems, Cat. No. CD3-H5226) was diluted with PBS to make a final concentration of 2 μg/mL, and then added into a 96-well ELISA plate at 100 μL/well. The plate was sealed with a plastic film and incubated at 4° C. overnight, washed twice with PBS the next day, and a blocking solution [PBS+2% (w/w) BSA] was added for blocking at room temperature for 2 h. The blocking solution was discarded, and VHH-Fc antibody or negative control antibody serially diluted from 100 nM was added at 50 μL/well. After incubation at 37° C. for 2 h, the plate was washed 3 times with PBS. A secondary antibody labeled with HRP (horseradish peroxidase) (purchased from Sigma, Cat. No. A0170) was added. After incubation for 1 h at 37° C., the plate was washed 5 times with PBS. A TMB substrate was added at 50 μL/well. After incubation at room temperature for 10 min, a stop solution (1.0 N HCl) was added at 50 μL/well. The OD450 nm values were read on an ELISA plate reader (Multimode Plate Reader, EnSight, purchased from Perkin Elmer). The assay results for the binding of the VHH-Fc to hCD33-his by ELISA are shown in FIGS. 7A and 7B and Tables 11 and 12. […] The IgG control was hIgG1, and the data in the table are OD450 nm values. […]

[3] = molecular target: T2, human CD33-His (extracellular domain …); test: competitive ELISA vs coated C33B904 3ug/mL; soluble 25ug/ml
human CD33-C2-his = molecular target: T3, human CD33-C2-his (human, UniProt P20138 136-260); test: ELISA on coated human CD33-C2-his
T3 construct: expressed in HEK293E; also called hCD33-C2-his; human CD33 protein C2-domain; not shown: His tag
T3 sequence (P20138 other isoform, or with tags, fused parts or gaps limits assumed): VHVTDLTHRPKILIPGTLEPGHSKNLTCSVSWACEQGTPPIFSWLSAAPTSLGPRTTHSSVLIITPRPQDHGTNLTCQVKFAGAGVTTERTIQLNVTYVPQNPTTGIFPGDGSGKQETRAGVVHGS
Excerpt: Plates were coated with human CD33-V-his (membrane distal end) and human CD33-C2-his (membrane proximal end), respectively, according to the ELISA method in Example 8. The VHH humanized antibodies were classified based on the membrane distal end and the membrane proximal end, as shown in FIGS. 20A-20J and Table 44, which allowed the classification of the VHH humanized antibodies into the following classes: […]

monkey CD33-His protein = molecular target: T4, monkey CD33-His protein (monkey); test: ELISA on coated monkey CD33-his
T4 construct: also called monkey CD33 protein

[4] = molecular target: T2, human CD33-His (extracellular domain …); test: competitive ELISA vs coated S006-NB146-181 3ug/mL; soluble 25ug/ml
[5] = molecular target: T2, human CD33-His (extracellular domain …); test: competitive ELISA vs coated S006-NB146-132 2ug/mL; soluble 25ug/ml
Procedure: (§1) VHH antibodies and control antibodies with known epitopes were subjected to epitope classification with competitive ELISA. ELISA plates were coated with 2 μg/mL antibodies according to the method in Example 5.1; the human CD33-his protein was subjected to a gradient dilution from 30 μg/mL, and EC80 values (Tables 26-27) were calculated. ELISA plates were coated with 2 μg/mL antibodies; after 25 µg/mL of antibodies to be tested were added, a human CD33-his protein having an EC80 concentration corresponding to each of the antibodies to be tested was then added for incubation for 2 h. The plates were washed 5 times with PBS, then HRP-labeled anti-His antibodies (purchased from GenScript, Cat. No. A00612) were added for incubation for 1 h, and the plates were washed 5 times. A TMB substrate was added at 50 μL/well and incubated at room temperature for 10 min, then a stop solution (1.0 M HCl) was added at 50 μL/well. OD_{450 nm} values were read using an ELISA plate reader (Insight, purchased from PerkinElmer), and the competition rate between the antibodies was calculated according to the OD_{450 nm} values using a formula. The results are shown in FIGS. 12A-12B, the higher the value of the competition rate, the closer the epitopes to which two antibodies bind.

[6] = molecular target: T2, human CD33-His (extracellular domain …); test: competitive ELISA vs coated S006-NB146-40 2ug/mL; soluble 25ug/ml
Procedure: as §1

T1 sequence (P20138 18-364): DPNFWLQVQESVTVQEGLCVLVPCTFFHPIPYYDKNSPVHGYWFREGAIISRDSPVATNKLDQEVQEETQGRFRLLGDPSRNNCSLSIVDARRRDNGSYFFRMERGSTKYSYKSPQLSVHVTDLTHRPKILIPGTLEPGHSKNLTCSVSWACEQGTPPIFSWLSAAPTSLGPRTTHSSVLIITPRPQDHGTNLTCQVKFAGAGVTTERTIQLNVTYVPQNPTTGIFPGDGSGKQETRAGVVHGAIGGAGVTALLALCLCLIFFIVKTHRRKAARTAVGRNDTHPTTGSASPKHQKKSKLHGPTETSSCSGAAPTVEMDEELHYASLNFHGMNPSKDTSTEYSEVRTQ

B1: C33B904 hIgG1 (antibody, V domains shown)
VH: EVQLVESGGGLVQPGRSLRLSCAASGFTFDDYAMHWVRQAPGKGLEWVSGIGWSGGSIVYADSVKGRFTISRDNAKNSLYLQMNSLRAEDTALYYCAKDSPYGDFFDYWGQGTLVTVSS
VL: DIVMTQSPDSLAVSLGERATINCKSSQTVFYSSNNKNYLAWYQQKPGQPPKLLISWASTRKSGVPDRFSGSGSGTDFTLTVSSLQAEDVAVYYCQHYYSTPYTFGQGTKLEIKR
notes: intact human IgG1; variable regions from US20190382481A1; also called C33B3904; C331B904
With B1 the EC50 [1] was 12500 pM, the “Max MFI” value [1] was 15000 MFI and the “EC50 (read off the curve)” value [2] was about 300 pM. The inhibition rate [3] was 86%, the “EC50 (read off the curve)” value (human CD33-C2-his) was about 200 pM and the “EC50 (read off the curve)” value (monkey CD33-His protein) was about 300 pM. It also gave an inhibition rate [4] of 100%, an inhibition rate [5] of 98% and an inhibition rate [6] of -5%.
